Test results as given in patent publication US20050112698A1 (Bayer, published 2005).

B1: Fab B1 (Fab, V domains shown)
VH: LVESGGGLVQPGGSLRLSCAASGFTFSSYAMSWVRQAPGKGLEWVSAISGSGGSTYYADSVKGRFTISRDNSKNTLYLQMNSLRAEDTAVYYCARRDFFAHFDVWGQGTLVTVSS
VL: QMTQSPSSLSASVGDRVTITCRASQGIRGYLGWYQQKPGKAPKLLIYSASSLQSGVPSRFSGSGSGTDFTLTISSLQPEDFATYYCAEYIRMPYTFGQGTKVEIKR
notes: It carries FLAG and Strep tags
B2: Fab A12 (Fab, V domains shown)
VH: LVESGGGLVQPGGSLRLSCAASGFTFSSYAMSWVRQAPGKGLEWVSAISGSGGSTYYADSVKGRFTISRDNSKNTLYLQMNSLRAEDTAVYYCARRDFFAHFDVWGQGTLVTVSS
VL: QMTQSPSSLSASVGDRVTITCRASQGIRGYLGWYQQKPGKAPKLLIYSASSLQSGVPSRFSGSGSGTDFTLTISSLQPEDFATYYCGEWAYMPYTFGQGTKVEIKR
notes: Light chain CDR3 variant of Fab A2-G8; It carries FLAG and Strep tags
B3: Fab D5 (light chain CDR3 variant of A2-G8) (Fab, V domains shown)
VH: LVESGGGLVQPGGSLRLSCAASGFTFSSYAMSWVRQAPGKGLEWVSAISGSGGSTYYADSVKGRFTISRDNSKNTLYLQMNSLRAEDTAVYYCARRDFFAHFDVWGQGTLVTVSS
VL: QMTQSPSSLSASVGDRVTITCRASQGIRGYLGWYQQKPGKAPKLLIYSASSLQSGVPSRFSGSGSGTDFTLTISSLQPEDFATYYCASQGWMPYTFGQGTKVEIKR
notes: as for B1
B4: Fab D6L (Fab, V domains shown)
VH: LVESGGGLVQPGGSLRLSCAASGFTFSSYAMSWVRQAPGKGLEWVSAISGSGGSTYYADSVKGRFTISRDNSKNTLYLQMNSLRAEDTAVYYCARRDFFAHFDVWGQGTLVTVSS
VL: QMTQSPSSLSASVGDRVTITCRASQGIRGYLGWYQQKPGKAPKLLIYSASSLQSGVPSRFSGSGSGTDFTLTISSLQPEDFATYYCGEWLSMPYTFGQGTKVEIKR
notes: as for B2
B5: Fab B9 (Fab, V domains shown)
VH: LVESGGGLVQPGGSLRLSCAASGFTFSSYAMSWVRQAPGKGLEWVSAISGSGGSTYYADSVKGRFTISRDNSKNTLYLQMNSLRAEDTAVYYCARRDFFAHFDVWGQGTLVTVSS
VL: QMTQSPSSLSASVGDRVTITCRASQGIRGYLGWYQQKPGKAPKLLIYSASSLQSGVPSRFSGSGSGTDFTLTISSLQPEDFATYYCAGTGFMPYTFGQGTKVEIKR
notes: It carries FLAG and Strep tags; also called B9L
B6: Fab F5L (Fab, V domains shown)
VH: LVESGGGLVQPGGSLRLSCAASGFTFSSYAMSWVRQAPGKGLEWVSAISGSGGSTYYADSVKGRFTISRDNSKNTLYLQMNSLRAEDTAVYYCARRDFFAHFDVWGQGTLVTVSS
VL: QMTQSPSSLSASVGDRVTITCRASQGIRGYLGWYQQKPGKAPKLLIYSASSLQSGVPSRFSGSGSGTDFTLTISSLQPEDFATYYCSAHGFMPYTFGQGTKVEIKR
notes: as for B2

Key:
human Stem Cell Factor [1] = target: T1, human Stem Cell Factor (human, UniProt P21583 26-189); assay: cell-based or functional assay
T1 sequence (P21583 other isoform, or with tags, fused parts or gaps limits assumed): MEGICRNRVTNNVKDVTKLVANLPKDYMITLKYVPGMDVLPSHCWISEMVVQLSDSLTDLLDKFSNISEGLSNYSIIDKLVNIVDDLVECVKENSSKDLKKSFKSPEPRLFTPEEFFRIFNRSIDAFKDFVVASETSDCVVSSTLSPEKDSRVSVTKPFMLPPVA

human Stem Cell Factor [2] = target: T1, human Stem Cell Factor; assay: cell-based or functional assay; remark: listed apart in the source
Cynomolgus Monkey SCF [3] = target: T2, Cynomolgus Monkey SCF (cynomolgus monkey, UniProt A0A7N9CAX5 26-189); assay: cell-based or functional assay
human Stem Cell Factor [4] = target: T1, human Stem Cell Factor; assay: SPR BIAcore 2000, Fab over 150 RU immobilized hSCF
Experimental: (§1) Affinity measurements were carried out on a BIAcore 2000 (Biacore) at 25° C. […] Purified Fab's were diluted in HBS-EP running buffer at concentrations ranging from 1.95 to 125 nM. A volume of 100 μl was injected using a flow rate of 50 μl/min in Kinject mode. After a 10 min dissociation, 50 μl of 10 mM Glycine, pH 2.5 and 25 μl of 10 mM Glycine, pH 2.0 was injected using a flow rate of 100 μl/min. All samples were run in duplicate. […] Cynomologus monkey SCF was diluted in HBS-EP running buffer at concentrations ranging from 15.6 to 500 nM and 150 μl injected at a flow rate of 50 μl/min. After a 15 min dissociation, 50 μl of 10 mM Glycine, pH 2.5, and 25 μl of 10 mM Glycine, pH 1.5 was injected using a flow rate of 100 μl/min. All samples were run in duplicate. The data was globally fit to the 1 to 1 binding model using BIAevaluation software. The raw experimental data were corrected for instrumental and bulk solvent artifacts by double referencing using both activated and blocked surfaces as controls.
(§2) To evaluate the binding properties of anti-SCF Fabs selected from affinity optimization of the CDR3 loop with SCF, the real time interaction was measured using surface plasmon resonance with the BIAcore 2000. […] The improvement in Kd's are primarily governed by a substantial reduction in the off-rate (koff). […] The affinity constants for Fab binding to human SCF were slightly lower than those Kd's for cynomologus monkey SCF. The panning design, with lower antigen concentrations and extensive washing steps, favors off-rate selection. The affinity of the A2-G8 clone in an IgG vector was measured using the IgG immobilized to the surface of the CM5 chip.

Cynomolgus Monkey SCF [5] = target: T2, Cynomolgus Monkey SCF; assay: SPR BIAcore 2000, Fab over 185 RU immobilized cSCF
Experimental: as §1, §2

Cynomolgus Monkey SCF [6] = target: T2, Cynomolgus Monkey SCF; assay: SPR BIAcore, 5000 RU immobilized cSCF, off-rate ranking
Experimental: (§3) TABLE 12 Sequences of the CDR3 Vk1 Region of Selected Antibody Clones with Comparison of koff and SCF Inhibitory Activity The off-rates were determined using a high density surface CM5 chip (5000 RU of immobilized cSCF) on BIAcore and are shown with comparison to the original A2-G8 clone. […] The IC₅₀ in the TF-1 proliferation assay was based on an average of two assays with the exception of the A2-G8-IgG (n = 5).
Analysis of Fab binding to cSCF was performed by surface plasmon resonance using a BIAcore 2000 (Biacore, Piscataway, N.J.), according to the manufacturer's instructions and a CM5 chip (Biacore) coated with cSCF. For amine coupling, a research grade CM5 chip was activated using the standard NHS/EDC procedure. Cynomologus monkey SCF was diluted to 20 μg/ml in 10 mM NaAcetate, pH 5.0, and a total of 5000 RU's were coupled to channel 2 of the sensor surface. The remaining active sites were quenched by the addition of 1M ethanolamine, pH 8.0. Channel 1 was subjected to the coupling procedure in the absence of protein and was used as a reference surface. Extracts were diluted 1/5 in HBS-EP running buffer and injected for 2 min using a flow rate of 20 μl/min. The surface was regenerated by two consecutive injections of 25 μl, 10 mM glycine, pH 2.5, using a flow rate of 100 μl/min. The koff was calculated from a single concentration of Fab using BIAevaluation software (Biacore).

Cynomolgus Monkey SCF [7] = target: T2, Cynomolgus Monkey SCF; assay: competition ELISA: cSCF binding to coated human SCFR, Fab 3.1 µg/ml
Experimental: The extracts containing Fab were also tested for the ability to inhibit SCF binding to the SCF receptor. ELISA plates were coated overnight with 2 μg/ml human SCFR (R&D Systems, Minneapolis, Minn.) in PBS at 4° C. After washing with TBS-T, the plate was blocked with 5 mg/ml BSA in PBS. The extract was diluted 1/5 in PBS buffer containing 12.5 ng/ml cSCF and 1 mg/ml BSA. After a 1 hr incubation at room temperature, 100 μl was added to the blocked ELISA plate and incubated an additional hour. The plate was washed 5 times with TBS-T, and 100 μl of a 0.4 μg/ml solution of anti-SCF (R&D Systems) in 1 mg/ml BSA in PBS was added. After 1 hour the plate was washed and incubated with anti-Mouse-HRP (Sigma, St. Louis, Mo.). The plate was developed with BM Blue POD substrate (Roche Diagnostics, Chicago, Ill.) and read at 370 nm.
as §3

Binder	TF-1 proliferation IC50, fold lower than the A2-G8 Mab (human Stem Cell Factor [1])	IC50 TF-1 huSCF Assay (human Stem Cell Factor [2])	IC50 TF-1 cynoSCF Assay (Cynomolgus Monkey SCF [3])	Kd (human Stem Cell Factor [4])	koff (human Stem Cell Factor [4])	kon (human Stem Cell Factor [4])	Kd (Cynomolgus Monkey SCF [5])	koff (Cynomolgus Monkey SCF [5])	kon (Cynomolgus Monkey SCF [5])	koff (Cynomolgus Monkey SCF [6])	% Inhibition SCF Binding ELISA Assay (Cynomolgus Monkey SCF [7])
B1	≥ 6 fold	0.14 µg/mL	2.07 µg/mL	1.6 nM	0.0005 s⁻¹	320000 M⁻¹ s⁻¹	4.9 nM	0.00104 s⁻¹	210000 M⁻¹ s⁻¹	0.00041 s⁻¹	65%
B2	≥ 6 fold	0.38 µg/mL	1.65 µg/mL	1.8 nM	0.00046 s⁻¹	250000 M⁻¹ s⁻¹	5.5 nM	0.00087 s⁻¹	160000 M⁻¹ s⁻¹	0.00044 s⁻¹	68%
B3	≥ 6 fold	0.09 µg/mL	0.48 µg/mL	0.8 nM	0.00024 s⁻¹	290000 M⁻¹ s⁻¹	3.6 nM	0.00069 s⁻¹	190000 M⁻¹ s⁻¹	0.00027 s⁻¹	75%
B4	≥ 6 fold	0.19 µg/mL	1.46 µg/mL	1.4 nM	0.00027 s⁻¹	190000 M⁻¹ s⁻¹	5.4 nM	0.00073 s⁻¹	130000 M⁻¹ s⁻¹	0.0003 s⁻¹	70%
B5		2.01 µg/mL	5.45 µg/mL	1.7 nM	0.0005 s⁻¹	300000 M⁻¹ s⁻¹	4.3 nM	0.00079 s⁻¹	190000 M⁻¹ s⁻¹	0.00048 s⁻¹	70%
B6	≥ 6 fold	0.17 µg/mL	0.78 µg/mL	1.3 nM	0.00022 s⁻¹	170000 M⁻¹ s⁻¹	2.6 nM	0.00028 s⁻¹	110000 M⁻¹ s⁻¹	0.00024 s⁻¹	85%
